Measured values taken from article PMC3911823 (The FEBS journal, 2011).
Read-outs that look alike come from different tables or passages of the source.

How the values were obtained:
Type in all cases: biochemical, rabbit (Oryctolagus cuniculus)
[1] = substrate: CCOc1ccc2c(C(F)(F)F)cc(=O)oc2c1; conditions: other: 2B4 E474Q; Michaelis-Menten fit; 37.0 °C
[2] = substrate: COc1ccc2c(C(F)(F)F)cc(=O)oc2c1; conditions: other: 2B4 E474Q; Michaelis-Menten fit; 37.0 °C
[3] = substrate: CCOc1ccc2c(C(F)(F)F)cc(=O)oc2c1; conditions: other: 2B4 WT; substrate O-dealkylation, Michaelis-Menten fit; 37.0 °C
[4] = substrate: COc1ccc2c(C(F)(F)F)cc(=O)oc2c1; conditions: other: 2B4 WT; substrate O-dealkylation, Michaelis-Menten fit; 37.0 °C
[5] = substrate: CCOc1ccc2c(C(F)(F)F)cc(=O)oc2c1; conditions: other: 2B4 H172A; Michaelis-Menten fit; 37.0 °C
[6] = substrate: COc1ccc2c(C(F)(F)F)cc(=O)oc2c1; conditions: other: 2B4 H172A; Michaelis-Menten fit; 37.0 °C
[7] = substrate: CCOc1ccc2c(C(F)(F)F)cc(=O)oc2c1; conditions: other: 2B4 H172Q; Michaelis-Menten fit; 37.0 °C
[8] = substrate: COc1ccc2c(C(F)(F)F)cc(=O)oc2c1; conditions: other: 2B4 H172Q; Michaelis-Menten fit; 37.0 °C
[9] = substrate: CCOc1ccc2c(C(F)(F)F)cc(=O)oc2c1; conditions: other: 2B4 L437A; Michaelis-Menten fit; 37.0 °C
[10] = substrate: COc1ccc2c(C(F)(F)F)cc(=O)oc2c1; conditions: other: 2B4 L437A; Michaelis-Menten fit; 37.0 °C
[11] = substrate: CCOc1ccc2c(C(F)(F)F)cc(=O)oc2c1; conditions: other: 2B4 E474D; Michaelis-Menten fit; 37.0 °C
[12] = substrate: COc1ccc2c(C(F)(F)F)cc(=O)oc2c1; conditions: other: 2B4 E474D; Michaelis-Menten fit; 37.0 °C

B1: P450 2B4 E474Q (Oryctolagus cuniculus; E474Q) (protein)
chain: MAKKTSSKGKLPPGPSPLPVLGNLLQMDRKGLLRSFLRLREKYGDVFTVYLGSRPVVVLCGTDAIREALVDQAEAFSGRGKIAVVDPIFQGYGVIFANGERWRALRRFSLATMRDFGMGKRSVEERIQEEARCLVEELRKSKGALLDNTLLFHSITSNIICSIVFGKRFDYKDPVFLRLLDLFFQSFSLISSFSSQVFELFPGFLKHFPGTHRQIYRNLQEINTFIGQSVEKHRATLDPSNPRDFIDVYLLRMEKDKSDPSSEFHHQNLILTVLSLFFAGTETTSTTLRYGFLLMLKYPHVTERVQKEIEQVIGSHRPPALDDRAKMPYTDAVIHEIQRLGDLIPFGVPHTVTKDTQFRGYVIPKNTEVFPVLSSALHDPRYFETPNTFNPGHFLDANGALKRNEGFMPFSLGKRICLGEGIARTELFLFFTTILQNFSIASPVPPEDIDLTPRQSGVGNVPPSYQIRFLAR
- Km [1]: 64 ± 8 µM
- kcat [1]: 0.02 ± 0.0033 s⁻¹
- kcat/Km [1]: 333 M⁻¹ s⁻¹
- Km [2]: 178 ± 17 µM
- kcat [2]: 0.04 ± 0.005 s⁻¹

B2: P450 2B4 wild type (Oryctolagus cuniculus) (protein)
chain: MAKKTSSKGKLPPGPSPLPVLGNLLQMDRKGLLRSFLRLREKYGDVFTVYLGSRPVVVLCGTDAIREALVDQAEAFSGRGKIAVVDPIFQGYGVIFANGERWRALRRFSLATMRDFGMGKRSVEERIQEEARCLVEELRKSKGALLDNTLLFHSITSNIICSIVFGKRFDYKDPVFLRLLDLFFQSFSLISSFSSQVFELFPGFLKHFPGTHRQIYRNLQEINTFIGQSVEKHRATLDPSNPRDFIDVYLLRMEKDKSDPSSEFHHQNLILTVLSLFFAGTETTSTTLRYGFLLMLKYPHVTERVQKEIEQVIGSHRPPALDDRAKMPYTDAVIHEIQRLGDLIPFGVPHTVTKDTQFRGYVIPKNTEVFPVLSSALHDPRYFETPNTFNPGHFLDANGALKRNEGFMPFSLGKRICLGEGIARTELFLFFTTILQNFSIASPVPPEDIDLTPRESGVGNVPPSYQIRFLAR
- Km [3]: 25 ± 3 µM
- kcat [3]: 0.16 ± 0.0067 s⁻¹
- kcat/Km [3]: 6000 M⁻¹ s⁻¹
- Km [4]: 132 ± 6 µM
- kcat [4]: 0.188 ± 0.0033 s⁻¹
- kcat/Km [4]: 1330 M⁻¹ s⁻¹

B3: P450 2B4 H172A (Oryctolagus cuniculus; H172A) (protein)
chain: MAKKTSSKGKLPPGPSPLPVLGNLLQMDRKGLLRSFLRLREKYGDVFTVYLGSRPVVVLCGTDAIREALVDQAEAFSGRGKIAVVDPIFQGYGVIFANGERWRALRRFSLATMRDFGMGKRSVEERIQEEARCLVEELRKSKGALLDNTLLFASITSNIICSIVFGKRFDYKDPVFLRLLDLFFQSFSLISSFSSQVFELFPGFLKHFPGTHRQIYRNLQEINTFIGQSVEKHRATLDPSNPRDFIDVYLLRMEKDKSDPSSEFHHQNLILTVLSLFFAGTETTSTTLRYGFLLMLKYPHVTERVQKEIEQVIGSHRPPALDDRAKMPYTDAVIHEIQRLGDLIPFGVPHTVTKDTQFRGYVIPKNTEVFPVLSSALHDPRYFETPNTFNPGHFLDANGALKRNEGFMPFSLGKRICLGEGIARTELFLFFTTILQNFSIASPVPPEDIDLTPRESGVGNVPPSYQIRFLAR
- Km [5]: 26 ± 4 µM
- kcat [5]: 0.07 ± 0.005 s⁻¹
- kcat/Km [5]: 2500 M⁻¹ s⁻¹
- Km [6]: 126 ± 11 µM
- kcat [6]: 0.0867 ± 0.01 s⁻¹
- kcat/Km [6]: 667 M⁻¹ s⁻¹

B4: P450 2B4 H172Q (Oryctolagus cuniculus; H172Q) (protein)
chain: MAKKTSSKGKLPPGPSPLPVLGNLLQMDRKGLLRSFLRLREKYGDVFTVYLGSRPVVVLCGTDAIREALVDQAEAFSGRGKIAVVDPIFQGYGVIFANGERWRALRRFSLATMRDFGMGKRSVEERIQEEARCLVEELRKSKGALLDNTLLFQSITSNIICSIVFGKRFDYKDPVFLRLLDLFFQSFSLISSFSSQVFELFPGFLKHFPGTHRQIYRNLQEINTFIGQSVEKHRATLDPSNPRDFIDVYLLRMEKDKSDPSSEFHHQNLILTVLSLFFAGTETTSTTLRYGFLLMLKYPHVTERVQKEIEQVIGSHRPPALDDRAKMPYTDAVIHEIQRLGDLIPFGVPHTVTKDTQFRGYVIPKNTEVFPVLSSALHDPRYFETPNTFNPGHFLDANGALKRNEGFMPFSLGKRICLGEGIARTELFLFFTTILQNFSIASPVPPEDIDLTPRESGVGNVPPSYQIRFLAR
- Km [7]: 48 ± 6 µM
- kcat [7]: 0.0283 ± 0.005 s⁻¹
- kcat/Km [7]: 667 M⁻¹ s⁻¹
- Km [8]: 115 ± 15 µM
- kcat [8]: 0.123 ± 0.0083 s⁻¹
- kcat/Km [8]: 1000 M⁻¹ s⁻¹

B5: P450 2B4 L437A (Oryctolagus cuniculus; L437A) (protein)
chain: MAKKTSSKGKLPPGPSPLPVLGNLLQMDRKGLLRSFLRLREKYGDVFTVYLGSRPVVVLCGTDAIREALVDQAEAFSGRGKIAVVDPIFQGYGVIFANGERWRALRRFSLATMRDFGMGKRSVEERIQEEARCLVEELRKSKGALLDNTLLFHSITSNIICSIVFGKRFDYKDPVFLRLLDLFFQSFSLISSFSSQVFELFPGFLKHFPGTHRQIYRNLQEINTFIGQSVEKHRATLDPSNPRDFIDVYLLRMEKDKSDPSSEFHHQNLILTVLSLFFAGTETTSTTLRYGFLLMLKYPHVTERVQKEIEQVIGSHRPPALDDRAKMPYTDAVIHEIQRLGDLIPFGVPHTVTKDTQFRGYVIPKNTEVFPVLSSALHDPRYFETPNTFNPGHFLDANGALKRNEGFMPFSLGKRICAGEGIARTELFLFFTTILQNFSIASPVPPEDIDLTPRESGVGNVPPSYQIRFLAR
- Km [9]: 25 ± 4 µM
- kcat [9]: 0.045 ± 0.0033 s⁻¹
- kcat/Km [9]: 2000 M⁻¹ s⁻¹
- Km [10]: 85 ± 8 µM
- kcat [10]: 0.03 ± 0.0033 s⁻¹
- kcat/Km [10]: 333 M⁻¹ s⁻¹

B6: P450 2B4 E474D (Oryctolagus cuniculus; E474D) (protein)
chain: MAKKTSSKGKLPPGPSPLPVLGNLLQMDRKGLLRSFLRLREKYGDVFTVYLGSRPVVVLCGTDAIREALVDQAEAFSGRGKIAVVDPIFQGYGVIFANGERWRALRRFSLATMRDFGMGKRSVEERIQEEARCLVEELRKSKGALLDNTLLFHSITSNIICSIVFGKRFDYKDPVFLRLLDLFFQSFSLISSFSSQVFELFPGFLKHFPGTHRQIYRNLQEINTFIGQSVEKHRATLDPSNPRDFIDVYLLRMEKDKSDPSSEFHHQNLILTVLSLFFAGTETTSTTLRYGFLLMLKYPHVTERVQKEIEQVIGSHRPPALDDRAKMPYTDAVIHEIQRLGDLIPFGVPHTVTKDTQFRGYVIPKNTEVFPVLSSALHDPRYFETPNTFNPGHFLDANGALKRNEGFMPFSLGKRICLGEGIARTELFLFFTTILQNFSIASPVPPEDIDLTPRDSGVGNVPPSYQIRFLAR
- Km [11]: 77 ± 10 µM
- kcat [11]: 0.0067 ± 0.0017 s⁻¹
- Km [12]: 185 ± 14 µM
- kcat [12]: 0.0633 ± 0.0033 s⁻¹
- kcat/Km [12]: 333 M⁻¹ s⁻¹
